Assay results as given in patent US20040038369A1, “Airway-specific trypsin-like enzymes and method of using the same” (priority 2000, published 2004).

Columns and labels:
[1] = target: EGF antigen on the surface of the NCI-H292 cell membrane (proEGF) (human) (UniProt P01133); test: flow cytometry on NCI-H292 cells, control IgG1 1 µg, PerCP secondary
[2] = target: EGF antigen on the surface of the NCI-H292 cell membrane (proEGF) (human) (UniProt P01133); test: flow cytometry on NCI-H292 cells, control IgG1 1 µg, FITC secondary

Chain of EGF antigen on the surface of the NCI-H292 cell membrane (proEGF) (human) (P01133 23-1207): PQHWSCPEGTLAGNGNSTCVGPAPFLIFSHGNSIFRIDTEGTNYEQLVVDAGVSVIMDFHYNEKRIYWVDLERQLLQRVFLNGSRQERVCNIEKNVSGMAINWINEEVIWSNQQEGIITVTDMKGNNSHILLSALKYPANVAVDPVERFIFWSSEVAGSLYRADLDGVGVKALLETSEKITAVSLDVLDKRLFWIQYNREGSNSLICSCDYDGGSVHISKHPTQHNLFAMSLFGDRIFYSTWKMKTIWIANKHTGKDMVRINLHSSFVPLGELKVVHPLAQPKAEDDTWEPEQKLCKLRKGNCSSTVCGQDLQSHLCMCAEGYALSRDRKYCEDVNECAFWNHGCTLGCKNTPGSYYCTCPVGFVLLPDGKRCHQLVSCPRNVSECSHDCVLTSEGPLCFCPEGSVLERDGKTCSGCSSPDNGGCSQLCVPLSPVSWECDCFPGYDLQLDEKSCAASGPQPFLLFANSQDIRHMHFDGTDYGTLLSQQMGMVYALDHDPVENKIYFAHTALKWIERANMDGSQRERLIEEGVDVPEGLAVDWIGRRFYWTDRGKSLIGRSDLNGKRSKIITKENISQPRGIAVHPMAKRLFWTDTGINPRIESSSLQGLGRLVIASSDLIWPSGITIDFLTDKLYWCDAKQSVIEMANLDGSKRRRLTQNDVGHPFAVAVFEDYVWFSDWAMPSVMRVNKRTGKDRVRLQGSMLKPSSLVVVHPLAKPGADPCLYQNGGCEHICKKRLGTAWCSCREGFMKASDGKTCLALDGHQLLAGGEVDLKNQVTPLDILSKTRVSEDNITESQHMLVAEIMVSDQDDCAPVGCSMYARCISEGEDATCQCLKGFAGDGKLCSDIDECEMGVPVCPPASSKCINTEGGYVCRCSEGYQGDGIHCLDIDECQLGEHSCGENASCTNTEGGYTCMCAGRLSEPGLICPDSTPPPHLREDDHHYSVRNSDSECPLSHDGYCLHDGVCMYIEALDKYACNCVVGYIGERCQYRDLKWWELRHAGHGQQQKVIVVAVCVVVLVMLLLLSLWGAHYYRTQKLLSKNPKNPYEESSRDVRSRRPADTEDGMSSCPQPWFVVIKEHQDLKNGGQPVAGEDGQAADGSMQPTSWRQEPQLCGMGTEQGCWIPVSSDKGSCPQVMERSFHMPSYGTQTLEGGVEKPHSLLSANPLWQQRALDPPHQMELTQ

“normal mouse IgG1 (produced by R & D Corp.) (antibody)” was tested, and the average fluorescence intensity (back ground) [1] was 8.44 and the average fluorescence intensity (back ground) [2] was 4.62.
